Publication PMC8692065 (Cell Reports, 2021)

Biological target: SARS-CoV-2 S1 (Avi-tag, biotinylated) (SARS-CoV-2, original strain, UniProt P0DTC2, biotinylated (Avi-tag))
Test: BLI

B1: mAb-50, purified antibody (antibody, V domains shown)
VH: QVQLQESGPGLVNPSETLSLTCGVSGYSISSGFYWGWIRQPPGKGLEWIGSIYHRGSTFYNPSLKSRVTISVDRSKNQFSLRLSSVTAADTAVYYCARGEVLTSGGYNARFDPWGQGTLVTVSS
VL: DIQMTQSPSTLSASVGDSVTITCRASQSISLWLAWYQQKPGKAPKVLIYETSSLESGVPSRFSGSGAGTEFTLTISSLQPDDFATYYCQQYISYPLTFGGGTKVEIK
- Kd: 1.61 nM

B2: mAb-64, purified antibody (antibody, V domains shown)
VH: EVQLVETGGGLIQPGGSLRLSCAASGFTVSSNYMSWVRQAPGKGLEWVSVIYSGGSTYYADSVKGRFTISRDNSKNTLYLQMNSLRAEDTAVYYCARDLHIYGMDVWGQGTTVTVSS
VL: DIQMTQSPSSVSASVGDRVTITCRASQGISSWLAWYQQKPGKAPKLLIYAASSLQSGVPSRFSGSGSGTDFTLTISSLQPEDFATYYCQQANSFPNFGGGTKVEIK
- Kd: 1.96 nM
